Test system: MS2 coat protein
Assay: apparent KD of MS2 coat protein; designed switch direction (-1 OFF switch, 1 ON switch): -1; higher = weaker reporter binding
How it was run: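 Designed RNA switches sharing common flanks were transcribed on Illumina chips by stalled E. coli RNA polymerase. They were titrated with SNAP-549-labelled MS2 coat protein, from 0.7 or 1.5 nM doubling to 3 µM, in Tris-HCl pH 7.5 buffer with KCl, MgCl2, BSA, DTT, tRNA and Tween-20. Titrations ran without input, with 200 uM small-molecule ligand, or with an oligonucleotide input. The apparent KD of each design is the median over its clusters, after curve-fitting of normalised cluster fluorescence.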

[1] = Eterna round: R95, input ligand: microRNA oligo, concentration not stated
[2] = Eterna round: R95, input ligand: FMN 200 uM
[3] = Eterna round: R95, input ligand: none
[4] = input ligand: microRNA oligo, concentration not stated

| Sequence | apparent KD of MS2 coat protein (input ligand: FMN 200 uM) [nM] | apparent KD of MS2 coat protein (input ligand: none) [nM] | apparent KD of MS2 coat protein [1] [nM] | apparent KD of MS2 coat protein [2] [nM] | apparent KD of MS2 coat protein [3] [nM] | apparent KD of MS2 coat protein [4] [nM] |
| --- | --- | --- | --- | --- | --- | --- |
| GUCUUGUCAGGAUAUCUUACAUAACAAUCGUAGUUACAAUUGGAGAAGGGACAUGAGGAUCACCCAUGUUAGCA [tap-tap-tappy36] (Eterna round: R97, puzzle: Exclusion 4) | 26.5 | 26.9 | – | – | – | – |
| GUGACCAUAGGAUAUACAUGAGGAUCACCCAUGUGCAGGUCGGAAGACCCGCGGUCAUGUAGAAGGAUGUAAUU [EX3 A.23] (Eterna round: R97, puzzle: Exclusion 3) | 18.2 | 16.2 | – | – | – | – |
| GUGAGGUAAGGAUAUAGUAGUGAAGGUAAGAUAUGAGAAUGCUAGAAGGUACAUGAGGAUCACCCAUGUUCGGG [JR_Exclu4_Sub089] (puzzle: Exclusion 4) | – | – | 173 | – | – | – |
| GUGAGUAGUCAGGAUAUGCUGUACAAAAGUACAGCAGAAGGGACUACAUGAGGAUCACCCAUGUUUACUUCAUG [Omei Ex6 B5] (Eterna round: R97, puzzle: Exclusion 6) | 522 | 609 | – | – | – | – |
| GUGGAACAAGGAUAUCUAACCUCGGACAUGAGGAUCACCCAUGUAUGUCUCAAGAGACCUAGAGAAGGUGUUCGUG [Eternabot (L1) Solution 32] (Eterna round: R97, puzzle: Exclusion 5) | 50.8 | 30.7 | – | – | – | – |
| GUGUAACAUGAGGAUCACCCAUGUCAGGAUAUGCGAAUUUCAUCAAAAGAUGAAAUUUGCAGAAGGGACUGUAC [Omei Ex1 A24] (Eterna round: R97, puzzle: Exclusion 1) | 99.2 | 60.9 | – | – | – | – |
| GUGUAACUACACGGGCUCAACAUGAGGAUCACCCAUGUCAUACACGCAAGCUUUUCGCUUGUCUUAUCUGUCCGUGA [Mainesleed] (puzzle: Sensor v3, turn-off variant 1) | – | – | 14.2 | 12.5 | 11.3 | – |
| GUGUACGGAGGAUAUAUAUGGGCAGCAUACGCUGCAGCUUCACAUGAGGAUCACCCAUGUAGAAGGCUGUGCAC [JL-ex2-2.10 Brourd mod] (puzzle: Exclusion 2) | – | – | 19.9 | – | – | – |
| GUGUAGAUAGGAUAUGCUGGAAUCUAGCGAAGCUAGGUUCUACAUGAGGAUCACCCAUGUAGAAGGGUCUACAC [Dot plot directed A v12] (puzzle: Exclusion 2) | – | – | 28.5 | – | – | – |
| GUGUAGUGAGGAUAUACAUGAGGAUCACCCAUGUGAAUAAGAUAGAAUAAGAUAAAGUGUAGAAGGUAUAGUGU [Excluse me!!! 17 - Jieux - Exclusion 3] (Eterna round: R96, puzzle: Exclusion 3) | 60.8 | 58.4 | – | – | – | 41.8 |
| GUGUAGUGAGGAUAUACAUGAGGAUCACCCAUGUGAAUAAGAUAGAAUAAGAUAAAGUGUAGAAGGUAUAGUGU [Excluse me!!! 17 - Jieux - Exclusion 3] (puzzle: Exclusion 3) | – | – | 50 | – | – | – |
| GUGUGCACGCUGCGAUCCUACAUGAGGAUCACCCAUGUGGUCUGGUGGCGUGGGUCACCGGACUUGGCUCGUCUUGG [salish99_S_TOV1_R5_077] (Eterna round: R97, puzzle: Sensor, turn-off variant 1) | 171 | 169 | – | – | – | – |
| GUUAACGCAGGAUAUUAGUACAUGCACAUGAGGAUCACCCAUGUUUAGUGGGUCUAGGAAUAAGAAGGGCGAUGAA [EX5 #21] (Eterna round: R97, puzzle: Exclusion 5) | 210 | 227 | – | – | – | – |
| GUUACACAUGAGGAUCACCCAUGUGAGGAUAUGGAUUCGUUGCAAGUAGGCGAUGGAUCCAGAAGGCGCGUGAG [JR_Ex1_Sub080] (Eterna round: R97, puzzle: Exclusion 1) | 58.7 | 50.5 | – | – | – | – |
| GUUAUACAUGAGGAUCACCCAUGUCAGGAUAUUAUCUAUCUUUGGAAGCAUUGAUCGCUAAGAAGGGACUAGUA [Bubbles2] (Eterna round: R97, puzzle: Exclusion 1) | 28 | 33 | – | – | – | – |
| GUUAUGUCAGGAUAUGCUAAUGAUGAGUGAUCAGACAUGAUGUAGAAGGGACAUGAGGAUCACCCAUGUACUAA [EX4 #9] (Eterna round: R97, puzzle: Exclusion 4) | 30.6 | 29 | – | – | – | – |
| GUUAUUUCAGGAUAUACAUGAGGAUCACCCAUGUAAGCAAGGUGCCUGCAUCCCGACUGUAGAAGGGAAAUGAG [Eternabot (L2) Solution 61] (Eterna round: R97, puzzle: Exclusion 3) | 29.9 | 28.5 | – | – | – | – |

| Sequence | apparent KD of MS2 coat protein (input ligand: FMN 200 uM) [nM] | apparent KD of MS2 coat protein (input ligand: none) [nM] | apparent KD of MS2 coat protein [1] [nM] | apparent KD of MS2 coat protein [2] [nM] | apparent KD of MS2 coat protein [3] [nM] | apparent KD of MS2 coat protein [4] [nM] |
| --- | --- | --- | --- | --- | --- | --- |
| GUUGGUUGAGAGGAUAUUGUACGCGAUGAGUGUCGAGAAGGUUCAACAUGAGGAUCACCCAUGUGGCUGAGUAA [Eternabot (L1) Solution 40] (Eterna round: R97, puzzle: Exclusion 6) | 442 | 32.1 | – | – | – | – |
| GUUGUUUAUGUAGGAUAUGCCUGGCGUGCCUUUGCAGAAGGACAUGAGGAUCACCCAUGUAUUGCGGUCUGCGUUCAGAUCGCA [salish99_ExNG1_r4_039] (Eterna round: R96, puzzle: Exclusion NG 1) | 59.5 | 39 | – | – | – | 26 |
| GUUUCACAUGAGGAUCACCCAUGUGAGGAUAUACAUUUGUUAACCGUAGUUAAUAGAUGUAGAAGGCGCGUGAU [JRxlusion 4 - Jieux - Exclusion 1] (Eterna round: R97, puzzle: Exclusion 1) | 50.6 | 62.6 | – | – | – | – |
| GUUUCACAUGAGGAUCACCCAUGUGAGGAUAUGGACUUUUUGGCAAUAGUCGUUGGGUUCAGAAGGCGCGUGAU [JR_Exc1_Sub006] (Eterna round: R97, puzzle: Exclusion 1) | 45.2 | 49.4 | – | – | – | – |
| GUUUCGAGACGGAGAUCCGACAUGAGGAUCACCCAUGUCUCACAAGCUUUUUGCUCGUCUUAUACUCCUCUGUUCUC [Elimod 48 - Jieux - Sensor, turn-off variant 1] (Eterna round: R97, puzzle: Sensor, turn-off variant 1) | 15.6 | 17.7 | – | – | – | – |
| GUUUGCGCAGGAUAUACAUGAGGAUCACCCAUGUGAGAGAAAGAAGUGAGGAAGAAAAGUAGAAGGGCGUGACG [Mat - Exclusion 3 - Mod of Salish D72] (puzzle: Exclusion 3) | – | – | 58.4 | 301 | 39 | – |
| UAAAAGUCAGGAUAUGCGAGAGAUUGAAGUAUGGAAAGGUAGCAGAAGGGACAUGAGGAUCACCCAUGUGAGGA [JR_Exclu4_Sub095] (puzzle: Exclusion 4) | – | – | 31.7 | 51.1 | 29.5 | – |
| UAAAAGUGAGGAUAUCCAAUAUAUGACAUGAGGAUCACCCAUGUUUCCACUCGUACCUCCGGAGAAGGCACAAAAU [Ex5 #60] (Eterna round: R97, puzzle: Exclusion 5) | 25.2 | 28.6 | – | – | – | – |
| UAAAAUAAACAUGAGGAUCACCCAUGUGAAUGGACUCCUCGGGAGGAUAUUCUGCUUAAAGGUCAGGAGAAGGCCCAUUGCAAU [Isinza] (Eterna round: R96, puzzle: Exclusion NG 3) | 545 | 197 | – | – | – | 242 |
| UAAAGUAUAUAGGAUAUCUAGCUGGAAACAGCUAGAGAAGGAUGUACAUGAGGAUCACCCAUGUAGAUCUCAAA [Ex6/15-A2] (Eterna round: R97, puzzle: Exclusion 6) | 19 | 16.2 | – | – | – | – |
| UAAAUGUGAGGAUAUUCGAUUUACUCGGAGACGAGUAGAUCGGAGAAGGCACAUGAGGAUCACCCAUGUUCCUU [Mat - Exclusion 4 - JL Mod - D10] (Eterna round: R97, puzzle: Exclusion 4) | 234 | 23.2 | – | – | – | – |
| UAACAAGCUUUAAGAUCCUACAUGAGGAUCACCCAUGUGCUCGUCUUAUAACGUACUGUGACGAAAGUCACGGUACG [JL TOV1 3.17] (Eterna round: R97, puzzle: Sensor, turn-off variant 1) | 206 | 160 | – | – | – | – |
| UAACUGCUCGUCUUGUUAAACAUGAGGAUCACCCAUGUCAGCCUGUAAGGGUACGGUAGAUAGGCCCGAUUGCAUGA [Eternabot (L1) Solution 11] (Eterna round: R97, puzzle: Sensor, turn-off variant 1) | 26.9 | 31.2 | – | – | – | – |
| UAAGUUUACCGAGGAUAUGGUCAAUAAUUAUGACCAGAAGGCGGACUCAACAUGAGGAUCACCCAUGUAUAAAGGGUAAUUGGU [JR_ExcNG1_Sub047] (Eterna round: R96, puzzle: Exclusion NG 1) | 154 | 90.8 | – | – | – | 110 |
| UAAUAAAGUGUGAGGAUAUGCUGGUCGAUAGAUCAGCAGAAGGCACAUGAGGAUCACCCAUGUAAUAUAUAAAU [Mat - Exclusion 4 - JL Mod - D58] (puzzle: Brourd's mod of Exclusion 4) | – | – | 40.9 | 258 | 45 | – |
| UAAUACUCAGGAUAUAUGAUGUGAAACAUGAGGAUCACCCAUGUAAUAUUAUGGAUGUAAAUAGAAGGGAGAUUAU [Mat - Exclusion 5 - JL mod - D20] (puzzle: Exclusion 5) | – | – | 55.4 | 53.3 | 63 | – |
| UAAUAGUAUGUUAGGAUAUGCUGGUCGAAAGAUCAGCAGAAGGAACAUGAGGAUCACCCAUGUAGACUAUUUUA [Mod of JL 20 - Jieux - Brourd's mod of Exclusion 4] (Eterna round: R97, puzzle: Brourd's mod of Exclusion 4) | 31.6 | 17.8 | – | – | – | – |

— the supplement of paper PMC9170038
